In article PMC9737693, “Efficient Production of Fc Fusion Proteins in the Cytoplasm of Escherichia coli: Dissecting and Mitigating Redox Heterogeneity” (International Journal of Molecular Sciences, 2022):

Target: the molecule itself
Assay: non-reducing SDS-PAGE; purified proteins, non-reduced and trapped with 25 mM NEM at room temperature for 10 min, SDS-PAGE, Coomassie Blue R-250; dimer seen as a covalently (disulfide) linked band

B1: IgG1 CH2 domain with the hinge region (T106-A222) (domain or fragment, human, UniProt P01857 106-222, looked up)
chain: THTCPPCPAPELLGGPSVFLFPPKPKDTLMISRTPEVTCVVVDVSHEDPEVKFNWYVDGVEVHNAKTKPREEQYNSTYRVVSVLTVLHQDWLNGKEYKCKVSNKALPAPIEKTISKA
notes: human IgG1 hinge region and CH2 domain, residues T106-A222 of immunoglobulin heavy constant gamma 1, amplified from pAAT44; The dimer is told only for the protein made in the presence of CyDisCo (intermolecular hinge disulfide); also called IgG1 CH2 domain with hinge; hinge region fused to the CH2 domain; source: E. coli BL21(DE3) cytoplasm with CyDisCo (Erv1p, PDI), purified (cobalt IMAC)
binding result: binds
